{"source": "paper PMC2782912", "key": {"[1]": {"target": "HIV-1 capsid protein C-terminal domain, CA-CTD (Met144-Leu231) (HIV-1)", "experiment": "NMR titration"}, "[2]": {"target": "HIV-1 capsid protein CA (Human immunodeficiency virus 1) (UniProt O93182)", "conditions": "cited from earlier work"}}}
{"substance": "HIV-1 capsid protein C-terminal domain, CA-CTD (Met144-Leu231) (domain or fragment)", "values": [{"measurement": "Kd", "setting": "[1]", "result": 9.8, "unit": "µM"}]}
{"substance": "HIV-1 capsid protein CA (from UniProt O93182)", "values": [{"measurement": "Kd", "setting": "[2]", "result": 18, "unit": "µM"}]}
